Substitutions are numbered along the chain they refer to. Numbers in names are those of the source.
B1: 4E-BP2 C91 (C35S/C73S/S91C), non-phosphorylated, labelled with Atto488 at position 91 (natural protein, UniProt Q13542 1-120, looked up)
chain: MSSSAGSGHQPSQSRAIPTRTVAISDAAQLPHDYSTTPGGTLFSTTPGGTRIIYDRKFLLDRRNSPMAQTPPSHLPNIPGVTSPGTLIEDCKVEVNNLNNLNNHDRKHAVGDDAQFEMDI
modifications: Atto488 maleimide on cysteine 91
B2: 4E-BP2 C35 (C73S), non-phosphorylated, labelled with Atto488 at position 35 (natural protein, UniProt Q13542 1-120, looked up)
chain: B1 chain with S35C, C91S
modifications: Atto488 maleimide on cysteine 35
B3: 4E-BP2 C14 (S14C/C35S/C73S), non-phosphorylated, labelled with Atto488 at position 14 (natural protein, UniProt Q13542 1-120, looked up)
chain: B1 chain with S14C, C91S
modifications: Atto488 maleimide on cysteine 14
B4: 4E-BP2 C73 (C35S), non-phosphorylated, labelled with Atto488 at position 73 (natural protein, UniProt Q13542 1-120, looked up)
chain: B1 chain with S73C, C91S
modifications: Atto488 maleimide on cysteine 73
B5: 4E-BP2 C121 (C35S/C73S/C121ins), non-phosphorylated, labelled with Atto488 at position 121 (natural protein, UniProt Q13542 1-120, looked up)
chain: MSSSAGSGHQPSQSRAIPTRTVAISDAAQLPHDYSTTPGGTLFSTTPGGTRIIYDRKFLLDRRNSPMAQTPPSHLPNIPGVTSPGTLIEDSKVEVNNLNNLNNHDRKHAVGDDAQFEMDIC
modifications: Atto488 maleimide on the inserted cysteine at position 121

How the values were obtained:
[1] = biological target: T1, eukaryotic initiation factor 4E (eIF4E) (UniProt P06730 1-217); assay: fluorescence correlation spectroscopy
T1 sequence (P06730 whole entry): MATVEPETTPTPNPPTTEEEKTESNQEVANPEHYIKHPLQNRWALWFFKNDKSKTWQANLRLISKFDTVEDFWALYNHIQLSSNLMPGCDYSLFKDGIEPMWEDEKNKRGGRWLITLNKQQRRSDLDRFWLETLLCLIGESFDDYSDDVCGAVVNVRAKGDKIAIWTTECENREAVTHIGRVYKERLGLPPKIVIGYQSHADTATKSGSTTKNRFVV

[2] = biological target: T1, eukaryotic initiation factor 4E (eIF4E); assay: fluorescence anisotropy decay

| binding result [1] | binding result [2] | Binder |
| --- | --- | --- |
| binds | – | B1 |
| – | binds | B2 |
| – | binds | B3 |
| binds | – | B4 |
| binds | – | B5 |

Source: publication doi:10.1101/2022.01.14.476386 (bioRxiv, 2022)
